From article doi:10.1101/2024.05.03.592356 (bioRxiv, 2024)

Molecular target: the molecule itself
Assay: crystal structure

B1: RdmB, N-terminal His6-tagged (enzyme, Streptomyces purpurascens)
chain: MSSSSPGEPLEPTDQDLDVLLKNLGNLVTPMALRVAATLRLVDHLLAGADTLAGLADRTDTHPQALSRLVRHLTVVGVLEGGEKQGRPLRPTRLGMLLADGHPAQQRAWLDLNGAVSHADLAFTGLLDVVRTGRPAYAGRYGRPFWEDLSADVALADSFDALMSCDEDLAYEAPADAYDWSAVRHVLDVGGGNGGMLAAIALRAPHLRGTLVELAGPAERARRRFADAGLADRVTVAEGDFFKPLPVTADVVLLSFVLLNWSDEDALTILRGCVRALEPGGRLLVLDRADVEGDGADRFFSTLLDLRMLTFMGGRVRTRDEVVDLAGSAGLALASERTSGSTTLPFDFSILEFTAVSEEAAPAAQASEALPAQE
binding result: binds
